According to publication PMC12021450:

Legend:
[1] = molecular target: Trypanosoma brucei MSC-associated protein 1 (MCP1), wild type, His6-tagged (Trypanosoma brucei); experiment: mass photometry; protein alone, 50 nM final in 50 mM HEPES-KOH pH 7.6, 50 mM NaCl, 2 mM MgCl2, 0.5 mM TCEP; pre-incubated at 2 uM at room temperature for 10 min; no tRNA; monomer to dimer
[2] = molecular target: Trypanosoma brucei MSC-associated protein 1 (MCP1), wild type, His6-tagged (Trypanosoma brucei); experiment: mass photometry; 50 nM protein with 25 nM tRNA^Ala (complex formed at 2 uM protein : 1 uM tRNA^Ala, room temperature, 10 min) in 50 mM HEPES-KOH pH 7.6, 50 mM NaCl, 2 mM MgCl2, 0.5 mM TCEP; monomer to dimer

Substance: Trypanosoma brucei MSC-associated protein 1 (MCP1), wild type, His6-tagged (natural protein)
- percent of the protein population that is dimeric [1]: 17%
- stoichiometry N [1]: 2
- percent of the species in the dimer peak, with tRNA^Ala [2]: 31%
- stoichiometry N [2]: 2
